Results as given in patent US20130011412A1.

Target: T1, recombinant human lymphotoxin-α homotrimer (human LTα3) (human) (UniProt P01374)
T1 sequence (looked up): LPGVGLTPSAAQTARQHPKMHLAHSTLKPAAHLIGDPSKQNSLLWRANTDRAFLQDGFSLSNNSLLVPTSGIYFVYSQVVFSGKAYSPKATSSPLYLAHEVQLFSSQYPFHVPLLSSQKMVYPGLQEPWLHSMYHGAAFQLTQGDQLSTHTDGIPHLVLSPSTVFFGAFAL
Assay: plate-based ELISA against LTα

| Binder | relative binding (EC50 of the variant / EC50 of version 5) |
| --- | --- |
| 3F12 version 8 (3F12.v5 with G95A, CDR-H3) (antibody, IgG1, V domains shown) VH: EVQLVESGGGLVQPGGSLRLSCAASGYTFSSYWIEWVRQAPGKGLEWVGEISPGSGSTNYNEEFKGRATFSADNSKNTAYLQMNSLRAEDTAVYYCADAYHGYWGQGTLVTVSS VL: DIQMTQSPSSLSASVGDRVTITCKSSQSLLYSTNQKNFLAWYQQKPGKAPKLLIYWASTRDSGVPSRFSGSGSGTDFTLTISSLQPEDFATYYCQQYYSYPRTFGQGTKVEIK | > 100 |
| 3F12 version 10 (3F12.v5 with H100A, CDR-H3) (antibody, IgG1, V domains shown) VH: EVQLVESGGGLVQPGGSLRLSCAASGYTFSSYWIEWVRQAPGKGLEWVGEISPGSGSTNYNEEFKGRATFSADNSKNTAYLQMNSLRAEDTAVYYCADGYAGYWGQGTLVTVSS VL: DIQMTQSPSSLSASVGDRVTITCKSSQSLLYSTNQKNFLAWYQQKPGKAPKLLIYWASTRDSGVPSRFSGSGSGTDFTLTISSLQPEDFATYYCQQYYSYPRTFGQGTKVEIK | > 100 |
